Experimental findings from the DeepSol protein solubility set are described below.

This data set is described as follows: soluble on expression in E. coli; label from the status in PepcDB or PDB records.
For the sequence “MSLSNKDIRVVVGMSGGVDSSVTAHVLKEQGYDVIGIFMKNWDDTDENGVCTATEDYNDVIEVCNQIGIPYYAVNFEKEYWDKVFTYFLDEYKKGRTPNPDVMCNKEIKFKAFLDHAMNLGADYVATGHYARIHRHEDGHVEMLRGVDNNKDQTYFLNQLSQQQLSKVMFPIGDIEKSEVRRIAEEQGLVTAKKKDSTGICFIGEKNFKTFLSQYLPAQPGDMITLDGKKMGKHSGLMYYTIGQRHGLGIGGDGDPWFVVGKNLKDNVLYVEQGFHHDALYSDYLIASDYSFVNPEDNDLDQGFECTAKFRYRQKDTKVFVKRENDHALRVTFAEPVRAITPGQAVVFYQGDVCLGGATIDDVFKNEGQLNYVVEGHHHHHH”, the “soluble on expression in E. coli” value is recorded as “soluble”.

On to “MAHHHHHHMLRRLVSCASPLRLRGCGAAVVLGNGRFASTANASAAPPITTTKAPTYGTVPDIPNLNFLSSPDNLLNTVDGTVDVCEALLKEIPKAKTPQAKHDLIDSTSNVLCLLLDPCEFVRQIHPDENYKRGASLAFQKGYEYMCEVNSRRDLYDVIKELDSQEGRKGLTPESSRTLCS”, for which the “soluble on expression in E. coli” value is “not soluble”.

On to “MGSDKIHHHHHHMTTLDALRVFVEVVRAGSFTAAARRLSISKSLASKRVAALEDELSVNLLNRSTRSLRLTEAGQIYYEHGLRVIEELQSAEAQVQSVTSQPRGQLKVSAQVSFGFMYLAAPTTAFMRRYPDVSVEILLEDQRFEPIDDSVDLAIRMGPLPPSSLVSRPLCKVVYGLYAAPDYLARAGRPLHPRDIADYDTVFYGNYDLGAHWRFSLNGQPLDIEPNSRLVINNLLGVVEAAKSGFGLAYLPTFAARAAVEEGQLIPLLQPYWNEHGSMLVLFRSRKYLPDKTRAYLDFITDWFREHLAL”, for which the “soluble on expression in E. coli” value is listed as “not soluble”.

In the case of “MGSDKIHHHHHHMTGNDWIGSALHNSITCMGHSAAALAAPFAQASRRLIATLQAGGQVLSCGNGGSSGDAQHLASELVNRFETTRRALPAIALSTDSSVVTAIANDVCYEQIFARQIEALGRPGDCLVAFSTSGNSTNVIAAARTAQQRGMWVLALTGKEGGQLALLLRPVDIELRVPEQNTARIQEVHLVLIHALCSGVDASFVGDAPASVFHTGQVLRDWEALDEACTFRRPLVFTNGVFDVLHRGHVQYLAEARAEGACLVVGVNSDASVRRLGKGADRPVNSEEDRMAVLAGLQAVDFVTVFDDDTPLKLIQHLQPDVLIKGGDWPIERIVGADWVQAGGGRVLSIPFRHERSTTALLQKIRGSQP”, the “soluble on expression in E. coli” value is reported as “not soluble”.

In the case of “SNAMELEQKLNLLNDLIVREIVNPLPPPYKVGVDLGTADIVLVVTDQEGIPVAGALKWASVVKDGLVVDYIGAIQIVRELKAKVERLLGSELFQAATAIPPGTVGRNAEACGHVVAGAGLELVTLVDEPVAAARALGINDGIVVDIGGGTTGIAVIEKGKITATFDEPTGGTHLSLVLAGSYKIPFEEAETIKKDFSRHREIMRVVRPVIEKMALIVKEVIKNYDQTLPVYVVGGTAYLTGFSEEFSRFLGKEVQVPIHPLLVTPLGIALFG”, the “soluble on expression in E. coli” value is on record as “soluble”.

“MGSDKIHHHHHHMPLYRHLDLQSRYVTSRPVDVWLPAATGDQPLPVIYMHDGQNLFDPTLRADGEVWAVDQAIERLCATYNWPGAIVVGVWCTDQRWREYAPQKPFAALRQTRGWESIVERMGGEPVSDAYLSFLVEEVRPFVDRHYPTLPDASNTFLMGSSMGGLISLYGVCQYPDLFAGAGCLSTHWPAGGNLLVDELAALLPPAGRHRFYFDYGTVGLDAEYEPFQQRMDRLLEQAGYRHGHDWLTRKFPGAAHNEAAWRARVADVIAFLVLGRVAGE”: the “soluble on expression in E. coli” value is recorded as “not soluble”.

For the sequence “PAKLGYWKIRGLQQPVRLLLEYLGEKYEEQIYERDDGEKWFSKKFELGLDLPNLPYYIDDKCKLTQSLAILRYIADKHGMIGTTSEERARVSMIEGAAVDLRQGISRISYQPKFEQLKEGYLKDLPTTMKMWSDFLGKNPYLRGTSVSHVDFMVYEALDAIRYLEPHCLDHFPNLQQFMSRIEALPSIKAYMESNRFIKWPLNGWHAQFGGGDAPP”, the “soluble on expression in E. coli” value is given as “soluble”.

With “MGSSHHHHHHSSGLVPRGSHMFADVETTCCARRTLTTIDEVPGMADETALLDWLGTMREKQPVWQDRYGVWHVFRHADVQTVLRDTATFSSDPTRVIEGASPTPGMIHEIDPPEHRALRKVVSSAFTPRTISDLEPRIRDVTRSLLADAGESFDLVDVLAFPLPVTIVAELLGLPPMDHEQFGDWSGALVDIQMDDPTDPALAERIADVLNPLTAYLKARCAERRADPGDDLISRLVLAEVDGRALDDEEAANFSTALLLAGHITTTVLLGNIVRTLDEHPAHWDAAAEDPGRIPAIVEEVLRYRPPFPQMQRTTTKATEVAGVPIPADVMVNTWVLSANRDSDAHDDPDRFDPSRKSGGAAQLSFGHGVHFCLGAPLARLENRVALEEIIARFGRLTVDRDDERLRHFEQIVLGTRHLPVLAGSSPRQSA”, the “soluble on expression in E. coli” value is listed as “soluble”.
